Target: DNMT3A^R736S (human) (UniProt Q9Y6K1)
Test: SEC + other: negative-stain EM

“DNMT3A^R736S (from UniProt Q9Y6K1 1-912) (enzyme)” showed a stoichiometry N of 2.

From paper doi:10.1101/2023.02.13.528223
